According to publication PMC5358875 (Journal of the American Chemical Society, 2017):
Bridge positions count the residues as written; N and C are the ends. Square brackets hold non-standard residues; d marks the D form. Ends that are not written are not given here. * marks the point of attachment. 5‑TAMRA = CN(C)c1ccc2c(-c3ccc(C(=O)*)cc3C(=O)[O-])c3ccc(N(C)C)cc3[o+]c2c1; n3 = azido unnatural amino acid, 3 CH2 in side chain; Orn(N3) = [N-]=[N+]=NCCC[C@H](N)C(=O)O; Dap(N3) = [N-]=[N+]=NC[C@H](N)C(=O)O; Aha = [N-]=[N+]=NCC[C@H](N)C(=O)O; m3N = not defined here; m3c = not defined here; m3 = not defined here; m4 = not defined here; m5 = not defined here; Ahx = NCCCCCC(=O)O

Assays:
TNKS2 ARC4 = molecular target: T1, TNKS2 ARC4 (Homo sapiens, UniProt Q9H2K2); assay: Direct fluorescence polarization, TNKS2 ARC4; type: binding; conditions: TAMRA-labeled peptides, n.d. = not detectable; for Kd: read-out: Kd TNKS2 ARC4 (Direct FP)
T1 construct: GST (cleaved yes); made in house; host or cells: E. coli C41(DE3)
T1 sequence (Q9H2K2 488-649): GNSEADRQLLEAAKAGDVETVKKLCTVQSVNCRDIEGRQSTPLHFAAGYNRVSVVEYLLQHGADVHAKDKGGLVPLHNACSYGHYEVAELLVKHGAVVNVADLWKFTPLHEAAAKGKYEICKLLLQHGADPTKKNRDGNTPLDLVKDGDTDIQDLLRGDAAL
Method: Fluorescence polarization (FP) assays were performed in 96-well half area black microplates (Corning) on a CLARIOstar microplate reader (BMG labtech) using excitation filter 540–20 nm, dichroic mirror LP 566 nm, and emission filter 590–20 nm. All peptides were dissolved in water as stock solutions. For direct FP assays, the stock concentrations of the TAMRA-labeled peptides were determined based on the 5-TAMRA absorbance at 556 nm (extinction coefficient ε = 89,000 M^–1 cm^–1) measured on a NanoDrop 2000 (Thermo Scientific) and verified by amino acid analysis (Department of Biochemistry, University of Cambridge). TNKS2 ARC4 (488–649) or TNKS1 ARC2–3 (315–662) was diluted 2-fold serially in the assay buffer (50 mM HEPES pH 7.5, 300 mM NaCl, 2 mM DTT, 0.05% (v/v) Tween 20) for a 12-point titration curve in triplicate. The diluted TAMRA-labeled peptide (20 nM, 50 μL) was mixed with the serially diluted TNKS2 ARC4 or TNKS1 ARC2–3 (40–0 μM, 50 μL) in each well and incubated for 30 min at 25 °C before the measurement. Data were analyzed on GraphPad Prism 5.0, and the dissociation constant, Kd, was determined using the following equation assuming the ratio between the concentration of the bound and that of the total TAMRA-labeled peptide is proportional to the fluorescence polarization [drawing 1] where FP is the fluorescence polarization, B is the minimum FP, T is the maximum FP, L0 is the total concentration of TAMRA-labeled peptide, P0 is the total concentration of protein, and Kd is the dissociation constant.

[1] = molecular target: T2, human tankyrase 1 ankyrin repeat clusters 2-3 (TNKS1 ARC2-3, residues 315-662) (human, UniProt O95271 315-662); assay: fluorescence polarisation; direct: TNKS2 ARC4 or TNKS1 ARC2-3 diluted 2-fold serially (40-0 uM, 50 uL) and mixed with TAMRA-labeled peptide (20 nM, 50 uL); 50 mM HEPES pH 7.5, 300 mM NaCl, 2 mM DTT, 0.05% Tween 20; 30 min, 25 C; conditions: both partners purified
T2 sequence (looked up): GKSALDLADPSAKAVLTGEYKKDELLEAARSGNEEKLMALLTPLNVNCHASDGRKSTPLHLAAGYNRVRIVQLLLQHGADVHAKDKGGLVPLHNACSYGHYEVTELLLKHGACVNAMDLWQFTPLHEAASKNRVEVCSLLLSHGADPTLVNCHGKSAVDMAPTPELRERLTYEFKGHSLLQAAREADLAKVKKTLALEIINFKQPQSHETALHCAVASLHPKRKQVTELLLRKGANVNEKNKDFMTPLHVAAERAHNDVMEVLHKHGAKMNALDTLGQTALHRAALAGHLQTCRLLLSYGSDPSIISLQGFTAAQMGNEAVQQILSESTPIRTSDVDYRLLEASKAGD

TNKS2 ARC4 (488–649) = molecular target: T3, TNKS2 ARC4 (488–649) (human, UniProt Q9H2K2 488-649); assay: FP
T3 chain: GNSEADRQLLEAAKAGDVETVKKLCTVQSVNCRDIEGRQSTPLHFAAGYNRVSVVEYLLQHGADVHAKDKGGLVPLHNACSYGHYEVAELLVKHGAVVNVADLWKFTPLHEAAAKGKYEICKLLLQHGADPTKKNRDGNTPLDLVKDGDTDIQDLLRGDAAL

[2] = molecular target: T4, human tankyrase 2 ankyrin repeat cluster 4 (TNKS2 ARC4, residues 488-649) (human, UniProt Q9H2K2 488-649); assay: fluorescence polarisation; direct: TNKS2 ARC4 or TNKS1 ARC2-3 diluted 2-fold serially (40-0 uM, 50 uL) and mixed with TAMRA-labeled peptide (20 nM, 50 uL); 50 mM HEPES pH 7.5, 300 mM NaCl, 2 mM DTT, 0.05% Tween 20; 30 min, 25 C; conditions: both partners purified
T4 sequence (looked up): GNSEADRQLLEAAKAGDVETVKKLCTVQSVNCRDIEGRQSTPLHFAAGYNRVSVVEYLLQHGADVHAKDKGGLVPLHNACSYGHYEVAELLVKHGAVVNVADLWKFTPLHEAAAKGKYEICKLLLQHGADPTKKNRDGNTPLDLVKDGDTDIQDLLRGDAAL

TNKS1 ARC2-3 = molecular target: T5, TNKS1 ARC2-3 (Homo sapiens, UniProt O95271); assay: Isothermal titration calorimetry, TNKS1 ARC2-3; type: binding; conditions: unlabeled peptides and Axin proteins
T5 construct: His6 (cleaved yes); made in house; host or cells: E. coli C41(DE3)
T5 sequence (O95271 315-662): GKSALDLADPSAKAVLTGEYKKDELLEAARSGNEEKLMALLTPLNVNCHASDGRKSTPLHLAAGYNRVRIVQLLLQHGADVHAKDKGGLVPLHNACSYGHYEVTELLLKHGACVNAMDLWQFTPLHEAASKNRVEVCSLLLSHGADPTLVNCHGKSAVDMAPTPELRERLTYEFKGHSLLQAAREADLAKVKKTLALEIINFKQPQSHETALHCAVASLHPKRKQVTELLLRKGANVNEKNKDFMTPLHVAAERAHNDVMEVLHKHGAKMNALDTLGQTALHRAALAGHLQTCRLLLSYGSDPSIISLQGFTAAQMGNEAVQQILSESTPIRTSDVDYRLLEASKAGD
Method: All ITC experiments were performed on a MicroCal iTC200 (GE Healthcare) at 25 °C. TNKS2 ARC4 (488–649), TNKS1 ARC2–3 (315–662), and Axin1 fragments were dialyzed overnight in PBS and 0.5 mM TCEP. Unlabeled peptides were used in the experiments. The peptide was diluted from the stock solution using the same dialysis buffer, and the effect of buffer dilution was accounted for when preparing TNKS samples. TNKS2 ARC4 (160–280 μM) or TNKS1 ARC2–3 (60–150 μM) was titrated into the sample cell containing the peptide (5–15 μM) or Axin1 fragments (8–12 μM) with an initial injection of 0.2 μL over 0.4 s followed by 19 injections of 2 μL over 4 s with a spacing of 60 s, except for TNKS2 ARC4 and Axin1 fragments for which the spacing was 70 s. Control experiments were performed using the same settings as above except that the cell was filled with dialysis buffer. Data were fitted with nonlinear regression using a one-site binding model from Origin 7.0 (MicroCal, Inc.).[90]

CN(C)c1ccc2c(c1)Oc1cc(N(C)C)ccc1C21OC(=O)c2cc(C(=O)NCCCCCC(=O)N[C@@H](CCCNC(=N)N)C(=O)N[C@@H](CCC(=O)O)C(=O)N[C@H]3CCn4cc(nn4)CN(CC(=O)O)Cc4cn(nn4)CC[C@@H](C(=O)N[C@@H](CCC(=O)O)C(N)=O)NC(=O)CNC(=O)[C@H](CC(=O)O)NC(=O)CNC3=O)ccc21 [T-cp4n2m3N]
Kd (TNKS2 ARC4): 1200 ± 20 nM

CN(C)c1ccc2c(c1)Oc1cc(N(C)C)ccc1C21OC(=O)c2cc(C(=O)NCCCCCC(=O)N[C@@H](CCCNC(=N)N)C(=O)N[C@@H](CCC(=O)O)C(=O)N[C@H]3CCn4cc(nn4)CCCCc4cn(nn4)CC[C@@H](C(=O)N[C@@H](CCC(=O)O)C(N)=O)NC(=O)CNC(=O)[C@H](CC(=O)O)NC(=O)CNC3=O)ccc21 [T-cp4n2m4]
Kd (TNKS2 ARC4): 800 ± 20 nM

CN(C)c1ccc2c(c1)Oc1cc(N(C)C)ccc1C21OC(=O)c2cc(C(=O)NCCCCCC(=O)N[C@@H](CCCNC(=N)N)C(=O)N[C@@H](CCC(=O)O)C(=O)N[C@H]3CCn4cc(nn4)-c4cc(C(=O)O)cc(c4)-c4cn(nn4)CC[C@@H](C(=O)N[C@@H](CCC(=O)O)C(N)=O)NC(=O)CNC(=O)[C@H](CC(=O)O)NC(=O)CNC3=O)ccc21 [T-cp4n2m3c]
Kd (TNKS2 ARC4): 440 ± 10 nM

CC(C)C[C@H](NC(=O)c1cc2cc(c1)-c1cn(nn1)CC[C@H](NC(=O)[C@H](CCC(=O)O)NC(=O)[C@H](CCCNC(=N)N)NC(=O)CCCCCNC(=O)c1ccc3c(c1)C(=O)OC31c3ccc(N(C)C)cc3Oc3cc(N(C)C)ccc31)C(=O)NCC(=O)N[C@@H](CC(=O)O)C(=O)NCC(=O)N[C@H](C(=O)N[C@@H](CCC(=O)O)C(N)=O)CCn1cc-2nn1)C(=O)N[C@@H](CS)C(=O)N[C@@H](CC(C)C)C(=O)N[C@@H](CCCNC(=N)N)C(N)=O [T-cp4n2m3c-LCLR]
Kd (TNKS2 ARC4): 730 ± 20 nM

cp4n1m3: non-binding cross-linked peptide, REXGDGXE, UAA side chains n=1, linker m3 (RE[Dap(N3)]GDG[Dap(N3)]E; linker 3-7 via m3 (inferred); reading uncertain)
Kd TNKS2 ARC4 (Direct FP) (TNKS2 ARC4): nondetectable

CN(C)c1ccc2c(c1)Oc1cc(N(C)C)ccc1C21OC(=O)c2cc(C(=O)NCCCCCC(=O)N[C@@H](CCCNC(=N)N)C(=O)N[C@@H](CCC(=O)O)C(=O)N[C@H]3CCn4cc(nn4)CCCc4cn(nn4)CCC[C@@H](C(=O)N[C@@H](CCC(=O)O)C(N)=O)NC(=O)CNC(=O)[C@H](CC(=O)O)NC(=O)CNC3=O)ccc21 [T-cp4n23m3]
Kd (TNKS2 ARC4): 1100 ± 40 nM

CN(C)c1ccc2c(c1)Oc1cc(N(C)C)ccc1C21OC(=O)c2cc(C(=O)NCCCCCC(=O)N[C@@H](CCCNC(=N)N)C(=O)N[C@@H](CCC(=O)O)C(=O)N[C@H]3CCn4cc(nn4)-c4cc(C(=O)N[C@@H](CCCNC(=N)N)C(=O)N[C@@H](CCCNC(=N)N)C(=O)N[C@@H](CCCNC(=N)N)C(=O)N[C@@H](CCCNC(=N)N)C(=O)N[C@@H](CCCNC(=N)N)C(=O)N[C@@H](CCCNC(=N)N)C(=O)N[C@@H](CCCNC(=N)N)C(=O)N[C@@H](CCCNC(=N)N)C(=O)N[C@@H](CCCNC(=N)N)C(N)=O)cc(c4)-c4cn(nn4)CC[C@@H](C(=O)N[C@@H](CCC(=O)O)C(N)=O)NC(=O)CNC(=O)[C@H](CC(=O)O)NC(=O)CNC3=O)ccc21 [T-cp4n2m3c-R9]
Kd (TNKS2 ARC4): 740 ± 30 nM

CN(C)c1ccc2c(c1)Oc1cc(N(C)C)ccc1C21OC(=O)c2cc(C(=O)NCCCCCC(=O)N[C@@H](CCCNC(=N)N)C(=O)N[C@@H](CCC(=O)O)C(=O)N[C@H]3CCCn4cc(nn4)CCCc4cn(nn4)CCC[C@@H](C(=O)N[C@@H](CCC(=O)O)C(N)=O)NC(=O)CNC(=O)[C@H](CC(=O)O)NC(=O)CNC3=O)ccc21 [T-cp4n3m3]
Kd (TNKS2 ARC4): 2600 ± 100 nM

{5‑TAMRA-Ahx}-RE[Aha]GDG[Aha]E (triazole 3-7 via m3N; reading uncertain) [T-cp4n2m3N]
Kd [1]: 280 ± 5 nM

{5‑TAMRA-Ahx}-RE[Aha]GDG[Aha]E (triazole 3-7 via m5; reading uncertain) [T-cp4n2m5]
Kd (TNKS2 ARC4 (488–649)): 1290 nM | Kd [2]: 1300 ± 40 nM

{5‑TAMRA-Ahx}-RE[Aha]GDG[Aha]E-NH2 (triazole 3-7 via m3c; reading uncertain) [T-cp4n2m3c]
Kd [2]: 400 ± 10 nM | Kd [1]: 320 ± 3 nM

{5‑TAMRA-Ahx}-RE[Orn(N3)]GDG[Orn(N3)]E (bridge 3-7; not fully specified (bridges)) [T-cp4n3m4]
Kd (TNKS2 ARC4 (488–649)): 1110 nM | Kd [2]: 1100 ± 30 nM

{5‑TAMRA-Ahx}-RE[Aha]GDG[Aha]E (triazole 3-7 via m4; reading uncertain) [T-cp4n2m4]
Kd (TNKS2 ARC4 (488–649)): 810 nM | Kd [1]: 290 ± 8 nM

{5‑TAMRA-Ahx}-RE[Aha]GDG[Aha]E (triazole 3-7 via m3; reading uncertain) [T-cp4n2m3]
Kd [1]: 180 ± 7 nM

B1: hAxin1_1-80: fragment of human Axin1, residues 1–80, containing both TNKS-binding motifs (protein)
chain: MNIQEQGFPLDLGASFTEDAPRPPVPGEEGELVSTDPRPASYSFCSGKGVGIKGETSTATPRRSDLDLGYEPEGSASPTP
modifications: left off: GST, end not stated, cleaved
Stoichiometry (ITC), TNKS1 ARC2-3 (TNKS1 ARC2-3): two

{5‑TAMRA-Ahx}-RE[n3]GDG[n3]E (bridge 3-7; not fully specified (bridges)) [T-cp4n3m5]
Kd (TNKS2 ARC4 (488–649)): 1910 nM | Kd [2]: 1900 ± 50 nM
